# Laboratory results reported in US6413935.
# Non-standard residues stand in square brackets, D forms with d. No end group written: not given here. Cha = N[C@@H](CC1CCCCC1)C(=O)O; 14 = not defined here
# T1: HLA-DR4w4 (DRB1*0401), purified from PREISS cells (human)
# T1 chain 1: not shown
# T1 chain 2: not shown
# T2: HLA-DR7 (DRB1*0701), purified from PITOUT cells (human)
# T2 chain 1: not shown
# T2 chain 2: not shown
# T3: HLA-DR5 (DRB1*11011), purified from SWEIG cells (human)
# T3 chain 1: not shown
# T3 chain 2: not shown
# T4: HLA-DRw53 (DRB4*0101), purified from L257.6 transfected fibroblasts (human)
# T4 chain 1: not shown
# T4 chain 2: not shown
# T5: HLA-DR3 (DRB1*0301), purified from MAT cells (human)
# T5 chain 1: not shown
# T5 chain 2: not shown
# T6: HLA-DR4w4 (DRB1*0401), purified from cell line PREISS (human)
# T6 chain 1: not shown
# T6 chain 2: not shown
# T7: HLA-DR7 (DRB1*0701), purified from cell line PITOUT (human)
# T7 chain 1: not shown
# T7 chain 2: not shown
# T8: HLA-DR5 (DRB1*11011), purified from cell line SWEIG (human)
# T8 chain 1: not shown
# T8 chain 2: not shown
# T9: mouse class II IA^k, purified from CH12 cells (mouse), P01910
# T9 chain 1: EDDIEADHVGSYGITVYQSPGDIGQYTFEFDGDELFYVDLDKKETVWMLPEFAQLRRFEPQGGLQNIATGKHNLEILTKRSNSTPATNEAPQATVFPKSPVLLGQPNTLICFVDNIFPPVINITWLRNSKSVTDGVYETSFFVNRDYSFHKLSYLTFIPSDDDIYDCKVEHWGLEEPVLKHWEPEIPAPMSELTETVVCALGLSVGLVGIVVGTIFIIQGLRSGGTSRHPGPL
# T9 chain 2: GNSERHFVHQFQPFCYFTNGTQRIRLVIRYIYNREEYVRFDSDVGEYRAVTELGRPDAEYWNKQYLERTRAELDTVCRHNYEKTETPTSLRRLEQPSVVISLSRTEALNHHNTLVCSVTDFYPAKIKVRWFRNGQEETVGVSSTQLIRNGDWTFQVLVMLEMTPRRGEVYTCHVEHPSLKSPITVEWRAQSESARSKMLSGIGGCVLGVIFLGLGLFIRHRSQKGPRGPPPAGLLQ
# T10: mouse class II IA^b, purified from DB27.4 cells (mouse), P14434
# T10 chain 1: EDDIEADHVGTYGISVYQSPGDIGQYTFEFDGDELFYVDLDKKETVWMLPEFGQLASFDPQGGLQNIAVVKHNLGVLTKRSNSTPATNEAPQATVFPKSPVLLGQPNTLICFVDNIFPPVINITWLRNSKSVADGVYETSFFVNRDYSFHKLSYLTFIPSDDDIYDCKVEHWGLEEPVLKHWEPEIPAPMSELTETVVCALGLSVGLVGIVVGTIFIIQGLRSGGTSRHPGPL
# T10 chain 2: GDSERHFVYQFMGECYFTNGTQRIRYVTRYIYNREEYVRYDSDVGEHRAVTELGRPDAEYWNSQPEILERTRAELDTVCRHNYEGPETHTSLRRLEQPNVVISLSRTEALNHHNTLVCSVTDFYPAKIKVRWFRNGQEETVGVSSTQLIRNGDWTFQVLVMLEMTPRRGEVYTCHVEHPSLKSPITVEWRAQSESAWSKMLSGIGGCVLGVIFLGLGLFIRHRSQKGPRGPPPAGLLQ
# T11: HLA-DR3 (DRB1*0301), purified from cell line MAT (human)
# T11 chain 1: not shown
# T11 chain 2: not shown
# B1: 906.30 (peptide)
# peptide: [dA]A[Cha]AAAATEKAA[dA]-NH2
# modifications: N-terminus assumed
# SMILES: C[C@H](NC(=O)[C@H](C)NC(=O)[C@H](C)NC(=O)[C@H](CC1CCCCC1)NC(=O)[C@H](C)NC(=O)[C@@H](C)N)C(=O)N[C@@H](C)C(=O)N[C@H](C(=O)N[C@@H](CCC(=O)O)C(=O)N[C@@H](CCCCN)C(=O)N[C@@H](C)C(=O)N[C@@H](C)C(=O)N[C@H](C)C(N)=O)[C@@H](C)O
# B2: 906.50 (peptide)
# peptide: [dA]A[Cha]AAAATLKAF[dA]-NH2
# modifications: N-terminus assumed
# SMILES: CC(C)C[C@H](NC(=O)[C@@H](NC(=O)[C@H](C)NC(=O)[C@H](C)NC(=O)[C@H](C)NC(=O)[C@H](C)NC(=O)[C@H](CC1CCCCC1)NC(=O)[C@H](C)NC(=O)[C@@H](C)N)[C@@H](C)O)C(=O)N[C@@H](CCCCN)C(=O)N[C@@H](C)C(=O)N[C@@H](Cc1ccccc1)C(=O)N[C@H](C)C(N)=O
# B3: 906.04 (peptide)
# peptide: [dA]V[Cha]AAAATLKAA[dA]-NH2
# modifications: N-terminus assumed
# SMILES: CC(C)C[C@H](NC(=O)[C@@H](NC(=O)[C@H](C)NC(=O)[C@H](C)NC(=O)[C@H](C)NC(=O)[C@H](C)NC(=O)[C@H](CC1CCCCC1)NC(=O)[C@@H](NC(=O)[C@@H](C)N)C(C)C)[C@@H](C)O)C(=O)N[C@@H](CCCCN)C(=O)N[C@@H](C)C(=O)N[C@@H](C)C(=O)N[C@H](C)C(N)=O
# B4: 906.20 (peptide)
# peptide: [dA]A[Cha]AAQATLKAA[dA]-NH2
# modifications: N-terminus assumed
# SMILES: CC(C)C[C@H](NC(=O)[C@@H](NC(=O)[C@H](C)NC(=O)[C@H](CCC(N)=O)NC(=O)[C@H](C)NC(=O)[C@H](C)NC(=O)[C@H](CC1CCCCC1)NC(=O)[C@H](C)NC(=O)[C@@H](C)N)[C@@H](C)O)C(=O)N[C@@H](CCCCN)C(=O)N[C@@H](C)C(=O)N[C@@H](C)C(=O)N[C@H](C)C(N)=O
# B5: 906.16 (peptide)
# peptide: [dA]A[Cha]AVAATLKAA[dA]-NH2
# modifications: N-terminus assumed
# SMILES: CC(C)C[C@H](NC(=O)[C@@H](NC(=O)[C@H](C)NC(=O)[C@H](C)NC(=O)[C@@H](NC(=O)[C@H](C)NC(=O)[C@H](CC1CCCCC1)NC(=O)[C@H](C)NC(=O)[C@@H](C)N)C(C)C)[C@@H](C)O)C(=O)N[C@@H](CCCCN)C(=O)N[C@@H](C)C(=O)N[C@@H](C)C(=O)N[C@H](C)C(N)=O
# B6: 906.17 (peptide)
# peptide: [dA]A[Cha]AFAATLKAA[dA]-NH2
# modifications: N-terminus assumed
# SMILES: CC(C)C[C@H](NC(=O)[C@@H](NC(=O)[C@H](C)NC(=O)[C@H](C)NC(=O)[C@H](Cc1ccccc1)NC(=O)[C@H](C)NC(=O)[C@H](CC1CCCCC1)NC(=O)[C@H](C)NC(=O)[C@@H](C)N)[C@@H](C)O)C(=O)N[C@@H](CCCCN)C(=O)N[C@@H](C)C(=O)N[C@@H](C)C(=O)N[C@H](C)C(N)=O
# B7: 906.18 (peptide)
# peptide: [dA]A[Cha]AAKATLKAA[dA]-NH2
# modifications: N-terminus assumed
# SMILES: CC(C)C[C@H](NC(=O)[C@@H](NC(=O)[C@H](C)NC(=O)[C@H](CCCCN)NC(=O)[C@H](C)NC(=O)[C@H](C)NC(=O)[C@H](CC1CCCCC1)NC(=O)[C@H](C)NC(=O)[C@@H](C)N)[C@@H](C)O)C(=O)N[C@@H](CCCCN)C(=O)N[C@@H](C)C(=O)N[C@@H](C)C(=O)N[C@H](C)C(N)=O
# Assays:
# [1] = target: HLA-DR1 (DRB1*0101), purified from LG2 cells (human); assay: 125I-peptide inhibition, purified class II
# [2] = target: T1, HLA-DR4w4 (DRB1*0401), purified from …; assay: 125I-peptide inhibition, purified class II
# [3] = target: T2, HLA-DR7 (DRB1*0701), purified from …; assay: 125I-peptide inhibition, purified class II
# [4] = target: T3, HLA-DR5 (DRB1*11011), purified from …; assay: 125I-peptide inhibition, purified class II
# [5] = target: T4, HLA-DRw53 (DRB4*0101), purified from …; assay: 125I-peptide inhibition, purified class II
# [6] = target: T5, HLA-DR3 (DRB1*0301), purified from MAT …; assay: 125I-peptide inhibition, purified class II
# [7] = target: mouse class II IE^k, purified from CH12 cells (mouse); assay: 125I-peptide inhibition, purified class II
# [8] = target: T6, HLA-DR4w4 (DRB1*0401), purified from …; assay: competition vs 125I-peptide, purified class II MHC
# [9] = target: T7, HLA-DR7 (DRB1*0701), purified from cell …; assay: competition vs 125I-peptide, purified class II MHC
# [10] = target: T8, HLA-DR5 (DRB1*11011), purified from …; assay: competition vs 125I-peptide, purified class II MHC
# [11] = target: mouse class II IA^s, purified from LS102.9 cells (mouse); assay: 125I-peptide inhibition, purified class II
# [12] = target: T9, mouse class II IA^k, purified from CH12 …; assay: 125I-peptide inhibition, purified class II
# [13] = target: mouse class II IE^d, purified from A20 cells (mouse); assay: 125I-peptide inhibition, purified class II
# [14] = target: T10, mouse class II IA^b, purified from …; assay: 125I-peptide inhibition, purified class II
# [15] = target: T11, HLA-DR3 (DRB1*0301), purified from cell …; assay: competition vs 125I-peptide, purified class II MHC
binder,measurement,setting,value
B1,fold loss of binding reactivity vs 760.57,[1],8 fold
same,fold loss of binding reactivity vs 760.57,[2],7 fold
same,fold loss of binding reactivity vs 760.57,[3],10 fold
same,fold loss of binding reactivity vs 760.57,[4],10 fold
B2,fold increase in reactivity vs 760.57,[5],40 fold
same,fold increase in reactivity vs 760.57,[6],8 fold
AKFVAAWTLKAAA (modifications not checked) [1024.03],IC50,[2],2 nM
same,IC50,[7],3500 nM
same,IC50,[4],18 nM
B3,fold increase in reactivity vs 760.57,[5],30 to 100 fold
same,fold increase in reactivity vs 760.57,[6],3 fold
B4,fold reduction of binding vs 760.57,[3],30 fold
"[dA]K[14]VYAWTLKAA[dA]-NH2 (reading uncertain; also: printed as aK(14)VYAWTLKAAa-NH2) [peptide 965.051, aK(14)…a-NH2]",IC50,[8],0.3 nM
same,IC50,[9],833 nM
same,IC50,[10],5.7 nM
[dA]A[Cha]AAAATLKAA[dA] [760.57],IC50,[11],120 nM
same,IC50,[12],5260 nM
same,IC50,[1],4.5 nM
same,IC50,[2],2 nM
same,IC50,[5],3300 nM
same,IC50,[7],78 nM
same,IC50,[3],78 nM
NTDGSTDYGILQINSR (modifications not checked) [HEL46-61],IC50,[13],8500 nM
same,IC50,[12],20 nM
same,IC50,[14],7000 nM
"[dA]K[14]VKAWTLKAA[dA]-NH2 (reading uncertain; also: printed as aK(14)VKAWTLKAAa-NH2) [peptide 965.022, aK(14)…a-NH2]",IC50,[8],0.8 nM
same,IC50,[10],1.1 nM
HSLGKWLGHPDKF (modifications not checked) [PLP 139-151],IC50,[11],86 nM
[dA]A[Cha]AAAKTAAAA[dA] [760.50],IC50,[14],200 nM
same,IC50,[4],6.1 nM
"[dA]K[14]VKANTLKAA[dA]-NH2 (reading uncertain; also: printed as aK(14)VKANTLKAAa-NH2) [peptide 965.012, aK(14)…a-NH2]",IC50,[8],2.1 nM
same,IC50,[15],4590 nM
same,IC50,[10],2.2 nM
B5,fold increase in reactivity vs 760.57,[5],100 fold
same,fold increase in binding vs 760.57,[6],2 to 4 fold
B6,fold increase in reactivity vs 760.57,[5],100 fold
same,fold increase in binding vs 760.57,[6],2 to 4 fold
"[dA]K[14]VYAWTLKAA[dA]-NH2 (reading uncertain; also: printed as aK(14)VYAWTLKAAa-NH2) [peptide 965.052, aK(14)…a-NH2]",IC50,[8],0.8 nM
same,IC50,[9],25.5 nM
same,IC50,[10],6.9 nM
"[dA]K[14]VWANTLKAA[dA]-NH2 (reading uncertain; also: printed as aK(14)VWANTLKAAa-NH2) [peptide 965.032, aK(14)…a-NH2]",IC50,[8],0.7 nM
same,IC50,[15],849 nM
same,IC50,[10],2.9 nM
"[dA]K[14]VWANTLKAA[dA]-NH2 (reading uncertain; also: printed as aK(14)VWANTLKAAa-NH2) [peptide 965.031, aK(14)…a-NH2]",IC50,[8],2.1 nM
same,IC50,[10],8.3 nM
"[dA]K[14]VKANTLKAA[dA]-NH2 (reading uncertain; also: printed as aK(14)VKANTLKAAa-NH2) [peptide 965.011, aK(14)…a-NH2]",IC50,[15],592 nM
same,IC50,[10],11.8 nM
[dA]A[Cha]AAEATLKAA[dA]-NH2 [906.19],IC50,[6],1500 nM
B7,fold decrease of binding activity vs 760.57,[1],8 fold
